We go through 1 substance from paper PMC2747047.

For orientation: Km means the substrate concentration at which the rate is half of its maximum. Broadly, the kcat is the maximal rate divided by the concentration of active sites.

Holding throughout (assay): purified protein
Data set [1] relates to C[C@@H](O)[C@H]1C(=O)N2C(C(=O)O)=C(SCCN=CN)C[C@H]12. The settings on record: Fe/Zn enzyme; buffer not told in main text.
Data set [2] has as its system CO/N=C(\C(=O)N[C@@H]1C(=O)N2C(C(=O)O)=C(COC(C)=O)CS[C@H]12)c1csc(N)n1. As to conditions: Fe/Zn enzyme; buffer not told in main text.
The test system of data set [3] is O=C(Cc1cccs1)N[C@@H]1C(=O)N2C(C(=O)O)=C(/C=C/c3ccc([N+](=O)[O-])cc3[N+](=O)[O-])CS[C@H]12. Format: biochemical, Arabidopsis thaliana. As to conditions: 10 mM MOPS, pH 7.2 (as in Figure 2), Fe/Zn enzyme.

For Glx2-1 (Arabidopsis thaliana), the results for the Km in data set [1], in data set [2] and in data set [3] were 23 ± 3 µM, 25 ± 5 µM and 9.9 ± 1.6 µM, respectively. The catalytic constant (kcat) in data set [1] came out at 0.20 ± 0.01 s⁻¹; in data set [2], 0.20 ± 0.01 s⁻¹; in data set [3] it was 1.20 ± 0.04 s⁻¹.
